Legend:
[1] = target: T1, human CD38 endogenously expressed on MOLP8 cells (human, UniProt P28907 1-300); assay: flow cytometry on MOLP8 cells (endogenous hCD38), APC anti-human secondary
T1 construct: whole, on cells; also called hCD38
Description: The ability of the multispecific antigen binding molecules to bind cells was assessed using flow cytometry. Cell lines were chosen to determine the ability of both the anti-CD38 and anti-4-1BB arms to bind their targets. […] Binding was detected by using a labeled secondary antibody and measuring fluorescence on a flow cytometer.
HEK293 cells were lifted with trypsin, washed and resuspend in stain buffer (2% FBS in PBS). MOLP8 cells were washed and resuspended in stain buffer. Cells were added to wells of a 96 well V-bottom plate (3×10⁵ cells/well). A 1:4, 9-point, dose titration of test antibodies was diluted in stain buffer and added to cells to a final concentration ranging from 610 fM to 10 nM (a “no antibody” control was included as the ninth point (153fM), labeled as “secondary only”). Cells and antibodies were incubated for 30 min on ice and then washed in stain buffer. Cells were resuspended in 2 ug/ml allophycocyanin (APC) conjugated goat-anti human secondary antibody and incubated for 30 min on ice. Cells were then washed and resuspended in viability dye (according to the manufacturer's protocol) and incubated for 30 min on ice. Cells were then washed with stain buffer and resuspended in 2% PFA for 30 min on ice. After washing, cells were filtered and analyzed by flow cytometry to determine the geometric mean fluorescence intensity (gMFI), which was subsequently plotted using GraphPad Prism software. EC₅₀ values of the antibodies were determined from a 4-parameter logistic equation over a 9-point dose response curve (including secondary only control, representing the ninth point).

[2] = target: T2, human 4-1BB expressed with a C-terminal myc-myc-hexahistidine tag (human, UniProt Q07011 24-186); assay: SPR Biacore 8k, antibody captured by anti-human Fc, h4-1BB.mmH as analyte, 25 C
T2 construct: also called h4-1BB.mmH; REGN3584; not shown: C-terminal myc-myc-hexahistidine tag
T2 sequence (Q07011 24-186 limits assumed): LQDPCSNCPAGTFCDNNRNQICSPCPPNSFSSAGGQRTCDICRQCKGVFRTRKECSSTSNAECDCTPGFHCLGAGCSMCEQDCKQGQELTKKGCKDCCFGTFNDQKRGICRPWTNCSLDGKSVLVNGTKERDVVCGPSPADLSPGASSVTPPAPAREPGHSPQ
Outline: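 Antibodies captured on anti-human Fc CM5 surface; h4-1BB analyte binding in HBS-EP pH 7.4 at 25° C., association 5 min, dissociation 10 min. ka and kd from 1:1 fit of sensorgrams; KD and t½ calculated from rate constants.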

B1: REGN7647 (bispecific antibody, human IgG4 S228P, kappa)
heavy 1: EVQLVESGGGLVQPGRSLRLSCGASGFTFDDYVMHWVRQIPGKGLEWVAGISWNSGSIGYADSVKGRFTISRDNAKNSLYLQMNSLRAEDTALYFCAKDHIDPYSSSLYYYYGMDVWGQGTTVTVSSASTKGPSVFPLAPCSRSTSESTAALGCLVKDYFPEPVTVSWNSGALTSGVHTFPAVLQSSGLYSLSSVVTVPSSSLGTKTYTCNVDHKPSNTKVDKRVESKYGPPGGGGSGGGGSGGGGSEVQLVESGGGLVQPGRSLRLSCGASGFTFDDYVMHWVRQIPGKGLEWVAGISWNSGSIGYADSVKGRFTISRDNAKNSLYLQMNSLRAEDTALYFCAKDHIDPYSSSLYYYYGMDVWGQGTTVTVSSASTKGPSVFPLAPCSRSTSESTAALGCLVKDYFPEPVTVSWNSGALTSGVHTFPAVLQSSGLYSLSSVVTVPSSSLGTKTYTCNVDHKPSNTKVDKRVESKYGPPCPPCPAPPVAGPSVFLFPPKPKDTLMISRTPEVTCVVVDVSQEDPEVQFNWYVDGVEVHNAKTKPREEQFNSTYRVVSVLTVLHQDWLNGKEYKCKVSNKGLPSSIEKTISKAKGQPREPQVYTLPPSQEEMTKNQVSLTCLVKGFYPSDIAVEWESNGQPENNYKTTPPVLDSDGSFFLYSRLTVDKSRWQEGNVFSCSVMHEALHNRFTQKSLSLSPGK
heavy 2: EVQLVESGGGLVQPGRSLRLSCAASGFTFDDYAMHWVRQAPGKGLEWVSGISWKSDNIGYADSVKGRFTISRDNAKNSLYLQMNSLRAEDTALYYCAKALGGWKFDYYYGMDVWGQGTTVTVSSASTKGPSVFPLAPCSRSTSESTAALGCLVKDYFPEPVTVSWNSGALTSGVHTFPAVLQSSGLYSLSSVVTVPSSSLGTKTYTCNVDHKPSNTKVDKRVESKYGPPCPPCPAPPVAGPSVFLFPPKPKDTLMISRTPEVTCVVVDVSQEDPEVQFNWYVDGVEVHNAKTKPREEQFNSTYRVVSVLTVLHQDWLNGKEYKCKVSNKGLPSSIEKTISKAKGQPREPQVYTLPPSQEEMTKNQVSLTCLVKGFYPSDIAVEWESNGQPENNYKTTPPVLDSDGSFFLYSRLTVDKSRWQEGNVFSCSVMHEALHNHYTQKSLSLSLGK
light: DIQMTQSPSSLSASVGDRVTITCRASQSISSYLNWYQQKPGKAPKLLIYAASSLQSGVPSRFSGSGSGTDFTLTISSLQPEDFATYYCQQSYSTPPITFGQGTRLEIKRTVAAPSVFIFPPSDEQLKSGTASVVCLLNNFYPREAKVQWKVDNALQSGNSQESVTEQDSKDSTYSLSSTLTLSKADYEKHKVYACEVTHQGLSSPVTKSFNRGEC
notes: 1+2 format, hIgG4P-PVA; The linker between the two 4-1BB Fabs is (G4S)3v15; also called CD38x4-1BB (1 + 2), (G4S)3v15; 26812P2 x 35333P2 (IN) + 35333P2 (OUT)
For B1, the “MAX gMFI” value [1] was 120000 gMFI, the “100 nM h4-1BB.mmH Bind (RU)” value [2] was 86.1 RU and the Kd [2] was 0.0165 µM. The koff [2] was 0.00533 s⁻¹, the kon [2] was 324000 M⁻¹ s⁻¹ and the t½ [2] was 2.2 min.

Source: patent US20230416396A1 (Regeneron, published 2023)
